Tests used:
Type in all cases: cell-based
[1] = tested on: HMGB1 domains (A box, B box, acidic tail); test: Immunofluorescence of HMGB1-GFP domain constructs upon protein VII-HA expression; conditions: A549 cells, 2 days after transfection
Procedure: (§1) Cells were grown on glass coverslips in 24-well plates and either infected or induced with doxycycline (0.2 μg/mL). Cells were harvested for immunofluorescence at the indicated time points, washed in phosphate-buffered saline (PBS), fixed in 4% paraformaldehyde for 15 minutes and post-fixed with 100% ice-cold methanol for 5 minutes. Coverslips were then blocked and stained as described (Lilley et al. (2011) PLoS Pathog., 7:e1002084) and mounted using ProLong Gold Antifade Reagent (Life Technologies). Immunofluorescence was visualized using a Zeiss LSM Confocal microscope and ZEN 2011 software. Images were processed using ImageJ and assembled with Adobe CS6. All scale bars show in the Figures are 10 μm unless otherwise stated.
FIG. 8A provides a schematic of the different GFP constructs expressing distinct HMGB1 domains. […] Immunofluorescence of the HMGB1-GFP constructs 2 days after transfection of A549s cells under control conditions or upon expression of Ad5 protein VII-HA is shown in FIG. 8B. […] Only full-length HMGB1 and the HMGB1 A box are relocalized upon expression of protein VII. […] Next we tested the immobilization of this construct in chromatin upon protein VII expression.

[2] = target: T1, HMGB1 (Homo sapiens, UniProt P09429); test: Release assay of HMGB1 in THP-1 cells; set-up: endogenous in cells; conditions: PMA-treated THP-1 cells, LPS plus nigericin
T1 sequence (P09429 1-215): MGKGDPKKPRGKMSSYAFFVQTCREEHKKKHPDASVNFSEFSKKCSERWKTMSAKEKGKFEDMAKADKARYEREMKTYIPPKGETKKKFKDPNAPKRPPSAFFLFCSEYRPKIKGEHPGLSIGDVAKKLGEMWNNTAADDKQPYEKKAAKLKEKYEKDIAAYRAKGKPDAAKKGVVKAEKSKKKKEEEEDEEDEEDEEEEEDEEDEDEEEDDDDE
Procedure: THP-1 cells were seeded at a density of 2×10^5 cells per well in a 24-well plate, and stimulated into macrophage-like cells by addition of 10 ng/mL PMA for 48 hours. Cells were washed in PBS and transduced with recombinant adenovirus vectors expressing only GFP or protein VII-GFP such that >90% of cells were GFP positive. At 48 hours post transduction, cells were washed and 200 μL of serum free RPMI was added. To stimulate the inflammasome, LPS (Sigma-Aldrich L2880) with a final concentration of 0.5 μg/mL was added to wells and incubated for 2 hours, then nigericin (Sigma-Aldrich N7143) was added with a final concentration of 10 μM for 1 hour. Supernatants were collected and proteins precipitated overnight at 4° C. with a final concentration of 20% trichloroacetic acid (Sigma), washed with acetone, dried, and resuspended in 1×sample buffer with reducing agent (Invitrogen). For ELISA analysis, supernatants were harvested directly and HMGB1 content was detected by the manufacturer's instructions (Chondrex 6010). Cells were also harvested by the addition of 1×sample buffer with reducing agent (Invitrogen) and boiled. Supernatants and lysates were analyzed together by western blot.

[3] = target: T1, HMGB1; test: Immunofluorescence of HMGB1 localization in A549 cells; set-up: endogenous in cells; host or cells: A549
Procedure: as §1

[4] = target: T1, HMGB1; test: GFP immunoprecipitation from A549 cells transfected with protein VII-GFP constructs; set-up: endogenous in cells; host or cells: A549; conditions: A549 cells transfected 24 hours
Procedure: We further narrowed down this binding region through expression of protein VII peptides tagged with GFP. […] Cellular fractionation of A549 cells transfected for 24 hours with GFP and the different protein VII constructs is shown in FIG. 7C.

[5] = target: T1, HMGB1; test: Salt fractionation of nuclei, western blot for HMGB1; set-up: endogenous in cells; host or cells: A549 (also 293 / 293-Cre in the salt fractionation); conditions: for Chromatin association of HMGB1 (retention in high salt fractions): A549 cells, doxycycline-induced expression
Procedure: Salt fractionation of nuclei was adapted from established protocols (Zaret, K. (2005) Micrococcal nuclease analysis of chromatin structure. Curr. Protoc. Mol., Biol. Chapter 21, Unit 21.1; Teves et al. (2012) Methods Mol. Biol., 833:421-432). Briefly, 2-4×10^7 cells were collected and resuspended in 2 mL of ice-cold buffer I (0.32 M sucrose, 60 mM KCl, 15 mM NaCl, 5 mM MgCl2, 0.1 mM EGTA, 15 mM Tris, pH 7.5, 0.5 mM DTT, 0.1 mM PMSF and protease inhibitor cocktail from Roche). To dissolve the plasma membrane, 2 mL ice-cold buffer I supplemented with 0.1% IGEPAL were added and samples were incubated on ice for 10 minutes. The 4 mL of nuclei was layered on 8 mL of ice-cold buffer II (1.2 M sucrose, 60 mM KCl, 15 mM NaCl, 5 mM MgCl2, 0.1 mM EGTA, 15 mM Tris, pH 7.5, 0.5 mM DTT, 0.1 mM PMSF and protease inhibitor cocktail from Roche) and centrifuged for 20 minutes at 10,000×g and 4° C. The pelleted nuclei were resuspended in 400 μL buffer III (10 mM Tris pH 7.4, 2 mM MgCl2, 0.1 mM PMSF) supplemented with 5 mM CaCl2 and the DNA was digested to mononucleosomes by addition of 1 unit of MNase (Sigma-Aldrich, N3755). The reaction was incubated at 37° C. for 30 minutes and then stopped by addition of 25 μL of 0.1M EGTA. The samples were centrifuged for 10 minutes, 350×g, at 4° C., and supernatants were set aside for western blot analysis. The pellet was resuspended in 400 μL of buffer IV (70 mM NaCl, 10 mM Tris pH 7.4, 2 mM MgCl2, 2 mM EGTA, 0.1% Triton X-100, 0.1 mM PMSF) with 80 mM salt and rotated for 30 minutes at 4° C. The sample was centrifuged for 10 minutes at 350×g, 4° C., and the supernatant collected for western blot analysis. This step was repeated for salt concentrations in buffer IV of 150 mM, 300 mM and 600 mM. The final pellet was resuspended in 400 μL ddH2O and all samples were analyzed together by western blot. An aliquot of each supernatant was set aside for DNA purification using a PCR purification kit (Qiagen) and analyzed by agarose gel electrophoresis. […]

B1: protein VII: mature protein VII of human adenovirus type 5 (SEQ ID NO:1), expressed in cells, mostly with C-terminal HA tag (protein)
chain: AKKRSDQHPVRVRGHYRAPWGAHKRGRTGRTTVDDAIDAVVEEARNYTPTPPPVSTVDAAIQTVVRGARRYAKMKRRRRRVARRHRRRPGTAAQRAAAALLNRARRTGRRAAMRAARRLAAGIVTVPPRSRRRAAAAAAAAISAMTQGRRGNVYWVRDSVSGLRVPVRTRPPRN
modifications: C-terminal HA tag; Human adenovirus 5
Relocalization of HMGB1 A box [1]: relocalizes | HMGB1 in supernatants [2]: reduced levels | Relocalization of HMGB1 (immunofluorescence) [3]: relocalization of HMGB1 | Pull-down of HMGB1 by GFP immunoprecipitation [4]: able to pull-down HMGB1 | Retention of HMGB1 in the 600 mM high-salt fraction ([5]; A549 cells transfected 24 hours with GFP-tagged constructs): retention of HMGB1 | Chromatin association of HMGB1 (retention in high salt fractions) [5]: Increased chromatin association | Chromatin association of HMGB1 (retention in high salt fractions) ([5]; listed as Ad5 protein VII): retention in the high salt chromatin fractions

Source: patent US20190276499A1, “Protein VII Fragments and Methods of Use Thereof for the Treatment of Inflammatory Disorders” (priority 2016, published 2019)
